Results published in US20230065495A1, “MULTIPARTITE AND CIRCULARLY PERMUTED BETA-BARREL POLYPEPTIDES AND METHODS FOR THEIR USE” (University of Washington, priority 2020, published 2023).

Legend:
[1] = Absolute quantum yield (integrating sphere) and brightness; format: physicochemical
Experimental: Protein preparation. mFAP2a, mFAP2b and mFAP10 were produced by large-scale protein purification^9 and dialyzed overnight into DPBS that was adjusted to pH 7.40 using NaOH.
Chromophore preparation. DFHBI (Lucerna) and DFHBI-1T (Lucerna) were dissolved to 20.0 mM in 100% DMSO, and diluted in DPBS (pH 7.40) to measure absorbances on a Jasco V-750 spectrophotometer at peak absorbance wavelengths (417 nm for DFHBI and 422 nm for DFHBI-1T). Following background subtraction of identical buffer without chromophore, Beer's Law was used to calculate the molar chromophore concentrations of the stock solutions using previously reported extinction coefficients^5.
Preparation of protein-chromophore complexes. […]
Absolute quantum yield. […] Absolute quantum yields were measured for solutions of protein-chromophore complexes in DPBS (pH 7.40) in which ≥95% of the total chromophore was occupying the protein binding pocket (Table 4). Protein-chromophore complex samples and control samples were excited at λex=440 nm and absolute quantum yields were calculated according to the equation: […]
where fem is the emitted photon flux and fabs is the absorbed photon flux. […] Absolute quantum yield data was analyzed with U6039-05 PLQY measurement software (Table 4; FIG. 8).

[2] = Chromophore titration with DFHBI; format: binding
Experimental: (§1) Fluorescence endpoints were measured on a Synergy Neo2™ hybrid multi-mode reader (BioTek) in flat bottom, black polystyrene, non-binding surface 96-well microplates (Corning 3650). In measuring chromophore binding affinities (FIG. 6d,e), mFAP2, mFAP2a, and mFAP2b, and mFAP10 were produced by large-scale protein purification and SEC purification^9. Proteins were aliquoted in eight technical replicates in 200 μL final volumes to 20.0 nM final concentration in ten serial dilutions (√{square root over (10)} dilution factor) of DFHBI starting from 31.6 μM DFHBI or 31.6 μM DFHBI-1T final concentrations, including an eleventh condition without chromophore. Fluorescence was excited at λex=468 nm and fluorescence emission measured at λem=530 nm. Background fluorescence endpoints of wells with identical chromophore concentrations but purified protein replaced with an identical volume of high salt Tev cleavage buffer were measured, and fluorescence endpoints subtracted from those measured with protein. Background-subtracted data were averaged and the means normalized from 0 to 1 and fit to a single binding site isotherm function using non-linear least squares fitting to obtain a fitted Kd value (Table 4), and the fit scaled to the maximum mean value (FIG. 6d,e).

[3] = Chromophore titration with DFHBI-1T; format: binding
Experimental: as §1

B1: mFAP10: canonical, single-chain mFAP, SEQ ID NO: 534 (protein)
chain: SRAAQLLPGTWQATFTNEDGQTSQGQIHFQPRSPYTMDIVAQGTISDGRPIVGYGKATVKTPDTLDIDITYPSLGNIKAQGQITMDSPTQFKFDATTKGENDFHGRLTGTLQRQE
- brighter fluorescence with DFHBI-1T than DFHBI [1]: ~12 fold
- higher affinity for DFHBI than DFHBI-1T [2]: ~2.6 fold
- Kd [3]: 45 nM
